Data as given in article PMC10112281.
Where two headings read alike, the source gives them in different places. Blank lines part the entries; values can stand above or below the molecule they belong to. Where no end group is shown, it is not given here.

Experiments:
[1] = molecular target: FIP200 CLAW domain (Homo sapiens) (UniProt Q8TDY2); settings: cited from earlier work
[2] = molecular target: FIP200 CLAW domain (Homo sapiens) (UniProt Q8TDY2); settings: cited from earlier work; remark: listed apart in the source
[3] = molecular target: T1, FITC-labeled TNIP1 FIR peptide, pS122; assay: fluorescence polarisation
T1 chain: SSGTSSEFEVVTPEE

[4] = molecular target: T2, FITC-labeled TNIP1 FIR peptide, unmodified; assay: fluorescence polarisation
T2 chain: SSGTSSEFEVVTPEE

[5] = molecular target: T3, FITC-labeled TNIP1 FIR peptide, pS123; assay: fluorescence polarisation
T3 chain: SSGTSSEFEVVTPEE

[6] = molecular target: recombinant His6-TEV-FIP200-CLAW domain; assay: fluorescence polarisation

Molecule: OPTN (from UniProt Q96CV9)
Kd [1]: 306 µM

Molecule: OPTN phosphorylated (from UniProt Q96CV9)
Kd [2]: 11.5 µM

Kd [3]: 9.7 µM | Kd [4]: 46 µM | Kd [5]: 3.27 µM
B1: recombinant His6-TEV-FIP200-CLAW domain (domain or fragment)
chain: SRHSEKIAIRDFQVGDLVLIILDERHDNYVLFTVSPTLYFLHSESLPALDLKPGEGASGASRRPWVLGKVMEKEYCQAKKAQNRFKVPLGTKFYRVKAVSWNKKV
modifications: not checked

IC50 [6]: 70.2 µM
B2: unlabeled TNIP1 pS123 peptide (peptide)
chain: SSGTSSEFEVVTPEE
modifications: also: phosphoserine pS123, place not mapped
